From the supplement of paper PMC10598134
± gives the standard deviation.

Experiment: collision cross section of modified peptide (TIMS, N2, iRT-aligned); higher = larger / more extended gas-phase ion
Procedure, shortened: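 Values are averages of 1–3 technical replicates of the most abundant feature for each charge state. Collision cross section was obtained from the Mason-Schamp equation after 1/K0 calibration with three reference ions and run-wise alignment to the median iRT peptide deviation. Synthetic peptide pools (iRT standard spiked 1:40) were separated on a 120-min nanoflow C18 gradient at 60 °C, analysed on a timsTOF Pro/HT (dda-PASEF, nitrogen, ~2.4 mbar) and identified with MaxQuant.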

[1] = charge state: 3, modification: Malonyl
[2] = charge state: 2, modification: Methyl (K)
[3] = charge state: 3, modification: Methyl (K)
[4] = charge state: 2, modification: Phospho (Y)
[5] = charge state: 2, modification: Trimethyl (K)
[6] = charge state: 3, modification: Trimethyl (K)
[7] = charge state: 3, modification: Acetyl (K)
[8] = charge state: 2, modification: Malonyl
[9] = charge state: 2, modification: GlyGly (K)
[10] = charge state: 3, modification: GlyGly (K)
[11] = charge state: 2, modification: Dimethyl (K)
[12] = charge state: 3, modification: Dimethyl (K)
[13] = charge state: 2, modification: Succinyl
[14] = charge state: 3, modification: Succinyl
[15] = charge state: 3, modification: Citrullination (R)
[16] = charge state: 2, modification: Acetyl (K)
[17] = charge state: 2, modification: Glutarylation
[18] = charge state: 2, modification: Citrullination (R)
[19] = charge state: 3, modification: Crotonyl
[20] = charge state: 2, modification: Butyryl
[21] = charge state: 3, modification: Glutarylation
[22] = charge state: 2, modification: Crotonyl

TFGKAAGPSLSHTSGGTQSK [_TFGK(Malonyl)AAGPSLSHTSGGTQSK_]
collision cross section [1]: 514.27 ± 0.92 Å²

GTVPDDAVEALADSLGKK [_GTVPDDAVEALADSLGK(Methyl (K))K_]
collision cross section [2]: 482.51 ± 3.5 Å²
collision cross section [3]: 524.02 ± 2.6 Å²

SRFYSGFNSR [_SR(Methyl (R))FYSGFNSR_]
collision cross section (charge state: 2, modification: Methyl (R)): 375.99 ± 1.6 Å²
collision cross section (charge state: 3, modification: Methyl (R)): 436.64 ± 3.4 Å²

LDLSSLAYSGK [_LDLSSLAY(Phospho (Y))SGK_]
collision cross section [4]: 374.73 ± 0.68 Å²

KFGVLSDNFK [_K(Trimethyl (K))FGVLSDNFK_]
collision cross section [5]: 372.9 ± 0.61 Å²
collision cross section [6]: 457.56 Å²

IVEKYGYTHLSAGELLR [_IVEK(Acetyl (K))YGYTHLSAGELLR_]
collision cross section [7]: 562.4 ± 1.8 Å²

LGSPSGKTGTCR [_LGSPSGK(Malonyl)TGTCR_]
collision cross section [8]: 365.24 ± 0.013 Å²

ANLEKAQAELVGTADEATR [_ANLEK(GlyGly (K))AQAELVGTADEATR_]
collision cross section [9]: 487.2 ± 1.5 Å²
collision cross section [10]: 513.9 ± 1.3 Å²

SLEEEGAAHSGKR [_SLEEEGAAHSGK(Dimethyl (K))R_]
collision cross section [11]: 412.8 ± 3 Å²
collision cross section [12]: 453.89 ± 1.2 Å²

VNIGQGSHPQKVK [_VNIGQGSHPQK(Succinyl)VK_]
collision cross section [13]: 423.92 ± 1.1 Å²
collision cross section [14]: 481.33 ± 2 Å²

APEYLHR [_APEY(Nitro (Y))LHR_]
collision cross section (charge state: 2, modification: Nitro (Y)): 321.02 ± 1.2 Å²

GERGFPGYPGPK [_GERGFPGYP(Hydroxyproline)GPK_]
collision cross section (charge state: 3, modification: Hydroxyproline): 456.01 ± 1.2 Å²

PSIHGGSGGRGVSVSSAR [_PSIHGGSGGR(Citrullination (R))GVSVSSAR_]
collision cross section [15]: 486.3 ± 5 Å²

DAIHFYNKSLAEHR [_DAIHFYNK(Methyl (K))SLAEHR_]
collision cross section [2]: 441.67 Å²
collision cross section [3]: 502.11 ± 2.1 Å²

LTSLNVKYNNDK [_LTSLNVK(Acetyl (K))YNNDK_]
collision cross section [16]: 407.77 ± 1 Å²

SPSDSGYSYETIGKTTK [_SPSDSGYSYETIGK(hydroxyisobutyryl)TTK_]
collision cross section (charge state: 2, modification: hydroxyisobutyryl): 457.69 ± 0.57 Å²
collision cross section (charge state: 3, modification: hydroxyisobutyryl): 538.76 ± 2.8 Å²

SDDESSQKDIK [_SDDESSQK(Succinyl)DIK_]
collision cross section [13]: 378.1 ± 1 Å²

PGGEGPQCEKTTDVK [_PGGEGPQCEK(Gluratylation)TTDVK_]
collision cross section [17]: 428.07 ± 0.56 Å²

GIGRGTVQALHATGAR [_GIGR(Citrullination (R))GTVQALHATGAR_]
collision cross section [18]: 453.22 ± 0.95 Å²
collision cross section [15]: 491.89 ± 1.9 Å²

FGTINIVHPKLGSYTK [_FGTINIVHPK(Crotonyl)LGSYTK_]
collision cross section [19]: 553.88 ± 2 Å²

SLGEPAAGEGSAKR [_SLGEPAAGEGSAK(Propionyl)R_]
collision cross section (charge state: 2, modification: Propionyl): 383.35 ± 1.5 Å²
collision cross section (charge state: 3, modification: Propionyl): 488 ± 0.51 Å²

TQDQISNIKYHEEFEK [_TQDQISNIK(Crotonyl)YHEEFEK_]
collision cross section [19]: 560.13 Å²

DTGEKLTVAENEAETK [_DTGEK(Butyryl)LTVAENEAETK_]
collision cross section [20]: 448.65 ± 0.25 Å²

SPDEAYAIAKK [_SPDEAYAIAK(Methyl (K))K_]
collision cross section [2]: 372.23 ± 0.47 Å²
collision cross section [3]: 436.75 ± 4.3 Å²

VSPASSVDSNIPSSQGYKK [_VSPASSVDSNIPSSQGYK(Trimethyl (K))K_]
collision cross section [6]: 548.09 ± 0.9 Å²

SLFFGGKGAPLQR [_SLFFGGK(Gluratylation)GAPLQR_]
collision cross section [17]: 407.53 ± 0.99 Å²
collision cross section [21]: 479.63 ± 1.2 Å²

SLGEPAAGEGSAKR [_SLGEPAAGEGSAK(Methyl (K))R_]
collision cross section [2]: 408.5 ± 0.81 Å²
collision cross section [3]: 480.43 ± 2.6 Å²

ASDTSSETVFGKR [_ASDTSSETVFGK(Malonyl)R_]
collision cross section [8]: 387.3 ± 0.61 Å²

YIEIYVQKVNPSR [_YIEIYVQK(Methyl (K))VNPSR_]
collision cross section [2]: 439.54 ± 1.7 Å²
collision cross section [3]: 505.56 ± 3.7 Å²

ITASLCDLKSR [_ITASLCDLK(GlyGly (K))SR_]
collision cross section [9]: 398.64 ± 0.87 Å²
collision cross section [10]: 457.36 ± 1.1 Å²

GFCFITYTDEEPVKK [_GFCFITYTDEEPVK(Methyl (K))K_]
collision cross section [2]: 460.43 ± 0.33 Å²
collision cross section [3]: 513.09 ± 2.7 Å²

VDVEVPDVSLEGPEGKLK [_VDVEVPDVSLEGPEGK(Succinyl)LK_]
collision cross section [13]: 456.12 ± 0.34 Å²
collision cross section [14]: 501.13 ± 1.5 Å²

LSITGTYDLK [_LSITGTY(Phospho (Y))DLK_]
collision cross section [4]: 381.43 ± 0.65 Å²

GEGGFGGRGGGR [_GEGGFGGR(Citrullination (R))GGGR_]
collision cross section [18]: 329.76 ± 0.38 Å²

AYPLADAHLTK [_AY(Phospho (Y))PLADAHLTK_]
collision cross section [4]: 380.31 ± 0.063 Å²
collision cross section (charge state: 3, modification: Phospho (Y)): 465.22 ± 1 Å²

VDIDVPDVNIEGPDAKLK [_VDIDVPDVNIEGPDAK(Methyl (K))LK_]
collision cross section [2]: 457.57 ± 0.42 Å²
collision cross section [3]: 489.73 ± 3.2 Å²

GAPGGRGAQLSVPSPAR [_GAPGGR(Citrullination (R))GAQLSVPSPAR_]
collision cross section [18]: 412.31 ± 0.55 Å²

GEVGAGAGPGAQAGPSAKR [_GEVGAGAGPGAQAGPSAK(Methyl (K))R_]
collision cross section [2]: 422.57 ± 1.8 Å²
collision cross section [3]: 489.3 ± 3.6 Å²

IQQELQTAKK [_IQQELQTAK(Succinyl)K_]
collision cross section [13]: 376.48 ± 0.24 Å²
collision cross section [14]: 438.22 Å²

ASEALLKQLK [_ASEALLK(Crotonyl)QLK_]
collision cross section [22]: 379.57 ± 1.1 Å²

VNIGQGSHPQKVK [_VNIGQGSHPQK(Acetyl (K))VK_]
collision cross section [16]: 426.92 ± 2.1 Å²
collision cross section [7]: 478.98 ± 3.2 Å²

TQDQISNIKYHEEFEK [_TQDQISNIK(Methyl (K))YHEEFEK_]
collision cross section [3]: 547.22 ± 0.37 Å²

VLTANSNPSSPSAAKR [_VLTANSNPSSPSAAK(Succinyl)R_]
collision cross section [13]: 430.61 ± 1.1 Å²
collision cross section [14]: 526.23 ± 1.1 Å²

DAEAAEATAEGALKAEK [_DAEAAEATAEGALK(Methyl (K))AEK_]
collision cross section [2]: 456.59 ± 2.6 Å²
collision cross section [3]: 536.13 ± 1.5 Å²

SPDEAYAIAKK [_SPDEAYAIAK(Acetyl (K))K_]
collision cross section [16]: 369.21 ± 0.94 Å²
collision cross section [7]: 447.3 ± 0.6 Å²

LFVGGIKEDTEEHHLR [_LFVGGIK(Gluratylation)EDTEEHHLR_]
collision cross section [17]: 501.63 ± 1.9 Å²
collision cross section [21]: 544.37 ± 0.97 Å²

ASDTSSETVFGKR [_ASDTSSETVFGK(Crotonyl)R_]
collision cross section [22]: 402.93 ± 0.81 Å²
collision cross section [19]: 478.92 ± 1.3 Å²

IINEPTAAAIAYGLDKK [_IINEPTAAAIAYGLDK(Succinyl)K_]
collision cross section [13]: 465.22 ± 1.4 Å²
collision cross section [14]: 564.64 ± 0.073 Å²

GADFLVTEVENGGSLGSKK [_GADFLVTEVENGGSLGSK(Succinyl)K_]
collision cross section [13]: 480.22 ± 1.1 Å²
collision cross section [14]: 554.56 Å²

DESFLGKLGGTLAR [_DESFLGK(Dimethyl (K))LGGTLAR_]
collision cross section [11]: 418.8 ± 0.75 Å²
collision cross section [12]: 466.85 ± 1.2 Å²

VFIGNLNTLVVKKK [_VFIGNLNTLVVK(Malonyl)KK_]
collision cross section [1]: 517.22 Å²

ANLEKAQAELVGTADEATR [_ANLEK(Malonyl)AQAELVGTADEATR_]
collision cross section [8]: 476.69 ± 0.96 Å²
collision cross section [1]: 576.12 ± 0.95 Å²

GFALVGVGSEASSKK [_GFALVGVGSEASSK(Trimethyl (K))K_]
collision cross section [5]: 444.52 ± 0.57 Å²
collision cross section [6]: 489.21 ± 1.8 Å²

SDSGKPYYYNSQTK [_SDSGK(Trimethyl (K))PYYYNSQTK_]
collision cross section [6]: 473.28 ± 2.4 Å²

SSFAYKDQNENR [_SSFAYK(Gluratylation)DQNENR_]
collision cross section [17]: 404.81 ± 0.5 Å²
collision cross section [21]: 472.81 ± 1.2 Å²

LLIVSTTPYSEKDTK [_LLIVSTTPYSEK(Malonyl)DTK_]
collision cross section [8]: 454.81 ± 0.99 Å²
collision cross section [1]: 468.47 ± 1.2 Å²

LLEEEDSKLK [_LLEEEDSK(Methyl (K))LK_]
collision cross section [2]: 382.93 ± 0.7 Å²
collision cross section [3]: 439.97 ± 5.9 Å²

ITESVAETAQTIKK [_ITESVAETAQTIK(Methyl (K))K_]
collision cross section [2]: 444.7 ± 2.5 Å²
collision cross section [3]: 507.98 ± 2.8 Å²

ANEKTESSSAQQVAVSR [_ANEK(Butyryl)TESSSAQQVAVSR_]
collision cross section [20]: 441.41 ± 1.7 Å²
collision cross section (charge state: 3, modification: Butyryl): 534.65 ± 3.5 Å²

TPNLYIYSKK [_TPNLYIYSK(Crotonyl)K_]
collision cross section [22]: 385.36 Å²
collision cross section [19]: 432.18 Å²

SRFYSGFNSR [_SR(Citrullination (R))FYSGFNSR_]
collision cross section [18]: 364.39 ± 0.53 Å²

DLGKFQVATDALK [_DLGK(Acetyl (K))FQVATDALK_]
collision cross section [16]: 405.65 ± 0.97 Å²

GTVPDDAVEALADSLGKK [_GTVPDDAVEALADSLGK(Trimethyl (K))K_]
collision cross section [5]: 486.05 ± 4.8 Å²
collision cross section [6]: 534.79 ± 2.4 Å²

FVDSKVGEFSGANK [_FVDSK(Methyl (K))VGEFSGANK_]
collision cross section [2]: 434.66 Å²
